According to patent US20210032353A1 (NATIONAL HEALTH RESEARCH INSTITUTES, published 2021):

B1: R2C9-11 monoclonal antibody (antibody, V domains shown)
VH: QVQLQQPGAELVKPGASVKLSCKASGYTFTSYWMHWVKQRPGQGLEWIGEINPSNGRTNYNEKFKSKATLTVDKSSSTAYMQLSSLTSEDSAVYYCANLYFDVWGAGTTVTVSS
VL: DIVMTQSPSSLSVSAGEKVTMSCKSSQNLLNSGNQKYYLAWYQQKPGQPPKLLIYGASIRESGVPDRFIGSGSGTDFTLTISSVQAEDLAVYFCQSDHSYPYTFGGGTKLEIK
notes: Mouse monoclonal antibody purified from hybridoma supernatant; An IgG2a isotype antibody served as its control; also called R2C9-11 mAb
B2: R2C7-1 monoclonal antibody (antibody, V domains shown)
VH: EVQLQQSGPELVKPGASVKISCKASGYSFTDYFINWVIQRHGKSLEWVGRINPYNGGSFYNQKFKDKATLTVDKSSNIAHMELRSLASEDSAIYYCARSGGNGYDYWGQGTTLTVSS
VL: DIVMTQAAPSVPVIPGESVSISCRSSKSLLHSNGNTYLYWFLQRPGQSPQLLIYRMSNLASGVPDRFSGSGSGTAFTLRISRVEAEDVGVYYCMQHLEYPYTFGGGTKVEIK
notes: Mouse monoclonal antibody purified from hybridoma supernatant; An IgG2a isotype antibody served as its control; also called R2C7-1 mAb

What was measured:
[1] = target: T1, VEGFR3 IgD3-4 (UniProt P35916 219-415, limits assumed); test: native PAGE of the purified myc-tagged fragment, blot probed with R2C9-11
T1 construct: domain: IgD3-4; also called VEGFR3-ED Ig D3-4-myc; not shown: myc tag (pCMV6-XL6-myc vector)
T1 sequence (looked up): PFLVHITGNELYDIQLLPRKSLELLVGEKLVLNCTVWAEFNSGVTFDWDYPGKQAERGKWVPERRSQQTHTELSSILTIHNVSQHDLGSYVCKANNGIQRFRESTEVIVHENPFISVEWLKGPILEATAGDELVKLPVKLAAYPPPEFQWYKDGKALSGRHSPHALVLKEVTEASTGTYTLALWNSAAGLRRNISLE
Description: FIG. 11 is a set of graphs showing determination of the binding epitopes of R2C7-1 and R2C9-11 antibodies on VEGFR3 antigen. Panel A, Cell-based competitive. ELISA. HEK293T cells expressing VEGFR3 (293T/VEGFR3) were coated in 96-well plates. The optimal concentrations of R2C7-1 and R2C9-11 mAbs were determined as described previously (data now shown). The optimal concentrations of R2C7-1 and R2C9-11 mAbs were absorbed with the designed doses of the individual immunoglobin-like domains of VEGFR3 (R3-IgDs) antigens, as indicated. The bound antibodies were immune-probed with secondary antibody conjugated with HRP, visualized by addition of ABTS, and measured at OD₄₀₅ using a microplate reader (SpectraMax). Data are represented as means±S.D. of percentage of isotype control (CTL) in triplicate. The epitope locations of R2C7-1 and R2C9-11 on the VEGFR3 antigen are indicated by the black lines spanning IgD6 in the schematics. Panel B, Native gel electrophoresis. The whole extracellular domain (R3-IgD1-7), domain 3-4 (R3-IgD3-4) and domain 6-7 (R3-IgD6-7) were constructed, expressed in the E. coli, and purified using the anti-Myc affinity purification system. […] The binding of R2C7-1 and R2C9-11 to the VEGFR3 truncated antigens was evaluated with native gel electrophoresis to confirm the epitopes of R2C7-1 and R2C9-11 mAbs (middle and right, respectively). […]

[2] = target: T1, VEGFR3 IgD3-4; test: native gel electrophoresis and immunoblot
[3] = target: T2, VEGFR2 (KDR)-IgD 6-7 (UniProt P35968 551-753); test: Biacore; antibody as flow analyte, KDR-IgD6-7 as ligand
T2 construct: domain: IgD6-7; GST-tagged recombinant protein from E. coli by the methods; also called recombinant IgD6-7 of VEGFR2; VEGFR2-ED Ig D6-7; not shown: GST tag from the pGEX-4T-1 vector
T2 sequence (P35968 551-753): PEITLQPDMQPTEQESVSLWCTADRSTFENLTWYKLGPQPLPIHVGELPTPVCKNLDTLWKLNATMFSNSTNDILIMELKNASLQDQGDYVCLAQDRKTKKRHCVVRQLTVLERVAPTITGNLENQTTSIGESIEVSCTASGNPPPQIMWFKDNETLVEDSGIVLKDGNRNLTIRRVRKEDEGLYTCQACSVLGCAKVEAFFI

[4] = target: T3, VEGFR3 (Flt-4)-IgD 6-7 (UniProt P35916 555-764, limits assumed); test: Biacore; antibody as flow analyte, Flt 4-IgD6-7 as ligand
T3 construct: domain: IgD6-7; also called R3-IgD6-7; VEGFR3-ED Ig D6-7-myc; not shown: myc tag (pCMV6-XL6-myc vector)
T3 sequence (looked up): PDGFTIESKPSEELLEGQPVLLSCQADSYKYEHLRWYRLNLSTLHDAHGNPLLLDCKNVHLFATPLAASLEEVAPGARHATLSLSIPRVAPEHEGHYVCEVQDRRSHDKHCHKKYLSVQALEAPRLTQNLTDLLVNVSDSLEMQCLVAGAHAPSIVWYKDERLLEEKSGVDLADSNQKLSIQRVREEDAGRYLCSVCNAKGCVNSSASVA

[5] = target: T4, VEGFR3 IgD5 (individual recombinant immunoglobin-like domain 5 of VEGFR3) (UniProt P35916 422-552, limits assumed); test: cell-based competitive ELISA: R2C7-1 absorbed with the soluble domain, then bound to 293T/VEGFR3 cells, OD405
T4 construct: domain: IgD5
T4 sequence (looked up): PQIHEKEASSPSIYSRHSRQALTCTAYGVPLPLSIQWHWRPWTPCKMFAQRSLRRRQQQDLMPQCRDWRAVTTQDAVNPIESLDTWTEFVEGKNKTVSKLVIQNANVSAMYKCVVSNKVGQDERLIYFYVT
Description: Panel A, Cell-based competitive. ELISA. HEK293T cells expressing VEGFR3 (293T/VEGFR3) were coated in 96-well plates. The optimal concentrations of R2C7-1 and R2C9-11 mAbs were determined as described previously (data now shown). The optimal concentrations of R2C7-1 and R2C9-11 mAbs were absorbed with the designed doses of the individual immunoglobin-like domains of VEGFR3 (R3-IgDs) antigens, as indicated. The bound antibodies were immune-probed with secondary antibody conjugated with HRP, visualized by addition of ABTS, and measured at OD₄₀₅ using a microplate reader (SpectraMax). Data are represented as means±S.D. of percentage of isotype control (CTL) in triplicate. The epitope locations of R2C7-1 and R2C9-11 on the VEGFR3 antigen are indicated by the black lines spanning IgD6 in the schematics. Panel B, Native gel electrophoresis. The whole extracellular domain (R3-IgD1-7), domain 3-4 (R3-IgD3-4) and domain 6-7 (R3-IgD6-7) were constructed, expressed in the E. coli, and purified using the anti-Myc affinity purification system. The purity and molecular weight of each recombinant protein were visualized with a standard Western blot using anti-Myc antibody as probe (left). The binding of R2C7-1 and R2C9-11 to the VEGFR3 truncated antigens was evaluated with native gel electrophoresis to confirm the epitopes of R2C7-1 and R2C9-11 mAbs (middle and right, respectively).
The same methodology was adopted to define the epitopes of the antibodies on VEGFR3. To determine the optimal concentrations of the antibodies for VEGFR3, HEK293T/VEGFR3 transfectants were used as targets (data not shown). Subsequently, the antibodies with optimal concentrations were absorbed with individual recombinant extracellular domains of VEGFR3 (R3-IgDs) for competing the binding epitopes. Similarly, their major epitopes were both located in IgD6, but not in IgD7, of VEGFR3. To conform this finding, Western blotting analysis of different recombinant IgD proteins was carried out using native gel electrophoresis.

Binder | binding result [1] | binding result [2] | koff [3] [s⁻¹] | koff [4] [s⁻¹] | kon [4] [M⁻¹ s⁻¹] | binding result [5]
B1 | no binding |  |  |  |  | 
B2 |  | no binding | 1.1e-05 | 0.0037 | 280000 | no binding (tested: 10 (unit not printed on the sheet))
